First the molecules themselves.
B1: Ac-QQKPKPKPKQQ-Am [mCATCH(+)] (peptide)
peptide: Ac-QQKPKPKPKQQ-NH2
notes: Mutant of CATCH(+) with proline in place of the phenylalanine residues

For series [1] the following is noted: literature value (ref. 7); cited from earlier work.
A short description of series [2]: Circular dichroism: concentration-dependent transition from random coil to β-sheet. The series is classed as physicochemical. The following applies: equimolar mixture of CATCH peptides in 1x PBS, ellipticity at 212 nm. The procedure:
Circular Dichroism. Circular Dichroism was performed on an AVIV 202 spectrometer. Peptides were prepared in 1x PBS at 500 μM, unless stated otherwise. Samples were run 3 times, averaged, and converted to mean residue ellipticity. All data reported was for dynode values <500 V.
(§1) Nanofiber preparation. Stock solutions of CATCH(−) and CATCH(+) were prepared by dissolving lyophilized peptides in 1x PBS to a final concentration of 500 μM. Peptide concentration was confirmed using Phe absorbance (λ=260 nm). CATCH peptides were then mixed at a 1:1 (v/v) ratio and incubated overnight for formation of nanofibers, unless stated otherwise.
In general terms: CD spectra are sensitive to the conformation of chiral molecules.

The nature of series [3]: Protein incorporation and retention in macroscopic hydrogels under excess PBS. The series is classed as physicochemical. The procedure:
Macroscopic Hydrogel Formation. A 12 mM stock solution of CATCH(−) was prepared by dissolving dry peptide in 1x PBS and adjusting the pH to ˜7.6 with ammonium bicarbonate (Fisher). A 12 mM stock solution of CATCH(+) was prepared by dissolving dry peptide in 1X PBS and adjusting the pH to ˜7.2 with hydrochloric acid (0.5 N Fisher). CATCH peptide stock solutions were combined at a 1:1 (v/v) ratio in a 0.2 mL glass vial (Thermo), and the vial was gently swirled for 2 min until the hydrogel formed. The hydrogel was stained with red food coloring to aid visualization. Hydrogel images were recorded using a digital still camera.
Protein Incorporation into Macroscopic Hydrogels. […] Immediately after hydrogel formation, fluorescence was visualized by placing the glass vials on a SafeImager 2.0 transilluminator (Invitrogen) and recording images with a digital still camera. […] At various time points, fluorescence in the buffer supernatant was visualized by placing the glass vials on a SafeImager 2.0 transilluminator (Invitrogen) and recording images with a digital still camera. At the end-point, buffer supernatant was carefully removed by decanting and fluorescence was visualized by placing the glass vials on a SafeImager 2.0 transilluminator (Invitrogen) and recording images with a digital still camera.

For series [4], the target named is T1, Ac-EQEPEPEPEQE-Am [mCATCH(-)].
T1 construct: Mutant of CATCH(-) with proline in place of the phenylalanine residues
T1 peptide: Ac-EQEPEPEPEQE-NH2
The series is described as follows: ThT fluorimetry, kinetic, equimolar mixture.

A short description of series [5]: Dissolution of monosodium urate (MSU) crystals in vitro. The class given is biochemical. The following applies: 12.6 ug soluble CATCH-U, 0.5 mg MSU crystals, 2250 U/mL catalase, 96 hours, density at 293 nm. The method, then:
The enzymatic activity of CATCH-U in soluble and gel form was evaluated by measuring uric acid depletion over time via absorbance at 293 nm and 37° C. for varying concentrations of uric acid substrate. Hydrogels were left to incubate at 37° C. for 4 days with substrate removed and replenished daily to determine if the gels remain active over this timeframe. Gels were also incubated with monosodium urate (MSU) crystals.
Soluble CATCH-U activity in dissolving MSU crystals was assessed by incubating 12.6 ug soluble CATCH-U with 0.5 mg MSU crystals and 2250 U/mL catalase for 96 hours (FIG. 60). MSU crystal density was determined at 293 nm compared to a standard curve of crystals. […] Brightfield images, scale bar=[…].
The hydrogel creates a concentration gradient sufficient to dissolve crystallized uric acid in the form of monosodium urate (MSU) crystals (FIGS. 58 and 61). […] MSU crystals appear as white flakes while the background is black. The gel is the white mass on the right. […] A similar experiment was performed with lOuL hydrogels comprising 3.17 ug CATCH-U and incubated with 1 g/L MSU crystals for 24 hours (FIG. 61). […] Polarized, phase contrast images, scale bar=500 μm.

Series [6] has as its target B1. The series is described as follows: ThT fluorimetry, equimolar mixture. The procedure:
(§2) Thioflavin T (ThT) Assay. A ThT stock solution containing 0.8 mg/mL of thioflavin T (Acros) in 1x phosphate-buffered saline (PBS) (137 mM NaCl, 2.7 mM KCl, 10 mM Na₂HPO₄ and 1.8 mM KH₂PO₄, pH 7.4) was filtered through a 0.22 μm syringe filter (Millex), and further diluted 1:10 with 1x PBS to create a working solution. Peptide samples were mixed with the ThT working solution at a 1:10 (v/v) ratio, added to a black 96-well plate (Corning), and analyzed with a Molecular Devices SpectraMax M3 spectrophotometer (excitation 450, emission 482 nm). All samples were run in triplicate, with the mean and standard deviation of these samples reported.
as §1

Series [7] deals with the molecule itself. The series is described as follows: ThT fluorimetry, TEM, CD and fluorescence microscopy of the peptide alone.
The target of series [8] is T1, Ac-EQEPEPEPEQE-Am [mCATCH(-)]. The series is described as follows: ThT fluorimetry, equimolar mixture. The procedure:
as §2, §1

In the case of “Ac-QQKFQFQFEQQ-Am (Ac-QQKFQFQFEQQ-NH2) [Q11]”, the “Concentration at which the peptide self-assembles into β-sheet nanofibers” value in series [1] is about 10 µM.
On to “CATCH peptides: equimolar mixture of CATCH(+) and CATCH(−) peptides that co-assemble into β-sheet nanofibers (Ac-QQKFKFKFKQQ-NH2; not fully specified)”, for which the β-sheet fibrillization concentration result in series [2] was “about 300 μM”.
Regarding “CATCH(−)GFP: recombinant fusion of CATCH(−) and superfolder green fluorescent protein (GFP)”, the “Fluorescence of hydrogel after incubation under excess 1x PBS” value in series [3] (CATCH hydrogels formed in presence of the fusion protein, 48 h) is given as “retained their fluorescence”. The “GFP in the buffer layer over the hydrogels” value in series [3] (excess 1x PBS, up to 48 h) is given as “no GFP was detected”.
On to B1, for which the binding result in series [4] is “no binding”.

B2: CATCH-U: uricase fused to a CATCH peptide, expressed in E. coli, purified via nickel affinity chromatography; probably SEQ ID NO: 9 (FIG. 59) (protein)
chain: MAEQEFEFEFEQEGSGGGSGGSGGGGSGGSGEFMSAVKAARYGKDNVRVYKVHKDEKTGVQTVYEMTVCVLLEGEIETSYTKADNSVIVATDSIKNTIYITAKQNPVTPPELFGSILGTHFIEKYNHIHAAHVNIVCHRWTRMDIDGKPHPHSFIRDSEEKRNVQVDVVEGKGIDIKSSLSGLTVLKSTNSQFWGFLRDEYTTLKETWDRILSTDVDATWQWKNFSGLQEVRSHVPKFDATWATAREVTLKTFAEDNSASVQATMYKMAEQILARQQLIETVEYSLPNKHYFEIDLSWHKGLQNTGKNAEVFAPQSDPNGLIKCTVGRSSLKSKLLEHHHHHH
Take B2: the “MSU crystal amount over time” value in series [5] is “steady and significant decrease”.

B3: Ac-EQEFEFEFEQE-Am [CATCH(-)] (peptide)
peptide: Ac-EQEFEFEFEQE-NH2
notes: Synthetic designed anionic variant of Q11, made by Fmoc solid-phase synthesis; also called CATCH (6-); negative peptide
Take B3: the binding result in series [6] and in series [7] was “no binding” each time.

B4: Ac-QQKFKFKFKQQ-Am [CATCH(+)] (peptide)
peptide: Ac-QQKFKFKFKQQ-NH2
notes: Synthetic designed cationic variant of Q11, made by Fmoc solid-phase synthesis; also called CATCH (4+); positive peptide
In the case of B4, the binding result in series [8] and in series [7] was “no binding” each time.

(Values after patent US20230374471A1, “SELF-ASSEMBLING URICASE FUSION PEPTIDES” (University of Florida Research Foundation, Incorporated, priority 2020, published 2023).)
